Data published in publication PMC3177148 (Molecular microbiology, 2011).

Tests used:
MacB = MacB (Escherichia coli, UniProt P75831); assay: limited proteolysis protection; format: binding; conditions: 1 mM Mg-AMPPNP, loaded on ice, proteolysis at 37°C
[1] = biological target: T1, MacB with C-terminal 6His tag, purified and reconstituted into proteoliposomes (E. coli, UniProt P75831 1-648); assay: limited proteolysis of proteoliposomes
T1 sequence: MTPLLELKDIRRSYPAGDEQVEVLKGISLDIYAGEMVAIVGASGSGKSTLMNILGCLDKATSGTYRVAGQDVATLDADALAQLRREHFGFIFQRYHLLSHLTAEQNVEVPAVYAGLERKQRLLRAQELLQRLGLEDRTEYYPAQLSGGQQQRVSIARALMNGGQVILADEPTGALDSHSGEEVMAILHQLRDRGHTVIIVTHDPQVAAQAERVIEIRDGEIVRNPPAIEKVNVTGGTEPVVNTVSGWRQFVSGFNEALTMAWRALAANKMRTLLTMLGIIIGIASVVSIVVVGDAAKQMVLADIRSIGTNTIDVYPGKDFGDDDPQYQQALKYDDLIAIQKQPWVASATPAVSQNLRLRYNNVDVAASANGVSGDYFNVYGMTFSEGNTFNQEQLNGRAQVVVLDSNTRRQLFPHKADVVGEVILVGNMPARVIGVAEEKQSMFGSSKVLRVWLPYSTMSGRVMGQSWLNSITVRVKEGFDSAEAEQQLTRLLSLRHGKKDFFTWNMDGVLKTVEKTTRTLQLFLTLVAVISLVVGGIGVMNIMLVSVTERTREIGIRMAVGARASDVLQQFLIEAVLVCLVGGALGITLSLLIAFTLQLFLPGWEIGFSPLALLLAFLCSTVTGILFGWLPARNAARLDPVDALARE

cross-linking = biological target: the molecule itself; assay: cross-linking

Nc1ncnc2c1ncn2[C@@H]1O[C@H](COP(=O)(O)OP(=O)(O)NP(=O)(O)O)[C@@H](O)[C@H]1O [AMPPNP]
limited proteolysis protection (proteinase K) in proteoliposomes, anti-MacB immu (MacB): MacB alone binds ATP and AMPPNP

B1: MacA wild type with C-terminal 6His tag, purified (natural protein)
chain: MKKRKTVKKRYVIALVIVIAGLITLWRILNAPVPTYQTLIVRPGDLQQSVLATGKLDALRKVDVGAQVSGQLKTLSVAIGDKVKKDQLLGVIDPEQAENQIKEVEATLMELRAQRQQAEAELKLARVTYSRQQRLAQTKAVSQQDLDTAATEMAVKQAQIGTIDAQIKRNQASLDTAKTNLDYTRIVAPMAGEVTQITTLQGQTVIAAQQAPNILTLADMSAMLVKAQVSEADVIHLKPGQKAWFTVLGDPLTRYEGQIKDVLPTPEKVNDAIFYYARFEVPNPNGLLRLDMTAQVHIQLTDVKNVLTIPLSALGDPVGDNRYKVKLLRNGETREREVTIGARNDTDVEIVKGLEAGDEVVIGEAKPGAAQ
binding result [1]: binds
binding result (cross-linking): binds

B2: MacA G357A with C-terminal 6His tag, purified (natural protein)
chain: MKKRKTVKKRYVIALVIVIAGLITLWRILNAPVPTYQTLIVRPGDLQQSVLATGKLDALRKVDVGAQVSGQLKTLSVAIGDKVKKDQLLGVIDPEQAENQIKEVEATLMELRAQRQQAEAELKLARVTYSRQQRLAQTKAVSQQDLDTAATEMAVKQAQIGTIDAQIKRNQASLDTAKTNLDYTRIVAPMAGEVTQITTLQGQTVIAAQQAPNILTLADMSAMLVKAQVSEADVIHLKPGQKAWFTVLGDPLTRYEGQIKDVLPTPEKVNDAIFYYARFEVPNPNGLLRLDMTAQVHIQLTDVKNVLTIPLSALGDPVGDNRYKVKLLRNGETREREVTIGARNDTDVEIVKGLEAADEVVIGEAKPGAAQ
binding result (cross-linking): binds

B3: MacA G353A with C-terminal 6His tag, purified (natural protein)
chain: MKKRKTVKKRYVIALVIVIAGLITLWRILNAPVPTYQTLIVRPGDLQQSVLATGKLDALRKVDVGAQVSGQLKTLSVAIGDKVKKDQLLGVIDPEQAENQIKEVEATLMELRAQRQQAEAELKLARVTYSRQQRLAQTKAVSQQDLDTAATEMAVKQAQIGTIDAQIKRNQASLDTAKTNLDYTRIVAPMAGEVTQITTLQGQTVIAAQQAPNILTLADMSAMLVKAQVSEADVIHLKPGQKAWFTVLGDPLTRYEGQIKDVLPTPEKVNDAIFYYARFEVPNPNGLLRLDMTAQVHIQLTDVKNVLTIPLSALGDPVGDNRYKVKLLRNGETREREVTIGARNDTDVEIVKALEAGDEVVIGEAKPGAAQ
binding result (cross-linking): binds
